The text below walks through data of paper PMC12018189, “ATP synthesis of Enterococcus hirae V-ATPase driven by sodium motive force” (The Journal of Biological Chemistry, 2025).

Substrate in the series “purified protein”: O=P(O)(O)O
The experiment in a line: purified protein. To be noted: ATP synthesis direction, 0.5 mM ADP, 5 mM MgCl2, pH 7.0, 25 °C, smf 269.3 mV (Δψ 154.7 mV, ΔpNa 114.6 mV).

Substrate in series [1]: Nc1ncnc2c1ncn2[C@@H]1O[C@H](COP(=O)(O)OP(=O)(O)O)[C@@H](O)[C@H]1O
The experiment in a line: luciferin/luciferase luminescence assay of ATP synthesis, proteoliposomes. Particulars: ATP synthesis direction, 74 mM Pi, 5 mM MgCl2, pH 7.0, 25 °C, smf 269.3 mV (Δψ 154.7 mV, ΔpNa 114.6 mV). It counts as biochemical, Enterococcus hirae. The text has this:
luciferin/luciferase luminescence assay of ATP synthesis, proteoliposomes on EhVoV1 (Enterococcus hirae V-ATPase)

B1: EhVoV1 (Enterococcus hirae V-ATPase) (Enterococcus hirae ATCC 9790) (protein)
chain 1: MQIGKIIKVSGPLVMAENMSEASIQDMCLVGDLGVIGEIIEMRQDVASIQVYEETSGIGPGEPVRSTGEALSVELGPGIISQMFDGIQRPLDTFMEVTQSNFLGRGVQLPALDHEKQWWFEATIEEGTEVSAGDIIGYVDETKIIQHKIMVPNGIKGTVQKIESGSFTIDDPICVIETEQGLKELTMMQKWPVRRGRPIKQKLNPDVPMITGQRVIDTFFPVTKGGAAAVPGPFGAGKTVVQHQIAKWSDVDLVVYVGCGERGNEMTDVVNEFPELIDPNTGESLMERTVLIANTSNMPVAAREASIYTGITIAEYFRDMGYDVAIMADSTSRWAEALREMSGRLEEMPGDEGYPAYLGSRLAEYYERSGRVIALGSDQREGSITAISAVSPSGGDISEPVTQNTLRVVKVFWGLDSSLAQKRHFPSINWIQSYSLYSTEVGRYMDQILQQDWSDMVTEGMRILQEEEQLNEIVRLVGIDSLSDNDRLTLEVAKSIREDYLQQNAFDDVDTFTSREKQFNMLKVILTFGKEARKALSLGAYFNEIMEGTVAVRERISRSKYIPEEELAKISSINEEIKETIQLIVSEGGMTDD
chain 2: MIKEYRTIKEVVGPLMAVEKVSGVKYEELIEVRMQNGEIRRGQVLEVQEDKAMVQIFEGTSGINLKNSSVRFLGHPLQLGVSEDMIGRVFDGLGRPKDNGPEILPEKYLDINGEVINPIARDYPDEFIQTGISAIDHLNTLVRGQKLPVFSGSGLPHKELAAQIARQATVLDSSDDFAVVFAAIGITFEEAEFFMEDFRQTGAIDRSVMFMNLANDPAIERIATPRMALTAAEYLAYEKGMHVLVIMTDMTNYAEALREISAARREVPGRRGYPGYLYTNLATLFERAGRIRGLKGSVTQIPILTMPEDDKTHPIPDLTGYITEGQIILTRELYKSGIQPPIDVLPSLSRLKDKGTGAGKTREDHAATMNQLFAAYAQGKQAKELAVVLGESALSDIDKIYAKFAERFENEYVNQGFYTNRTITETLDLGWELLAMLPRTELKRIKDDLLDKYLPEGK
notes: whole VoV1 complex, His tags on c-subunits, expressed in E. coli C41(DE3), DDM-solubilised, Ni-NTA and size exclusion, reconstituted into soybean phosphatidylcholine liposomes; with V-type sodium ATPase subunit D; V-type sodium ATPase subunit G; V-type sodium ATPase subunit E; V-type sodium ATPase subunit F; V-type sodium ATPase subunit C; V-type sodium ATPase subunit I; V-type sodium ATPase …
Consider B1, for which, in the series “purified protein”, the Km turned out to be 2100 ± 200 µM and the turnover number (kcat) was 4.7 s⁻¹. In addition, in series [1], the Km was found to be 21 ± 2 µM and the kcat stood at 4.7 s⁻¹.
